Laboratory results: PMC3027643

Molecular target: mISCU/mNFS1/mISD11 complex (mouse) (UniProt Q9D7P6)
Experiment: native MS; ESI native mass spectrometry of the quaternary complexes after gel filtration, 50 mM ammonium acetate; masses of the GST-mFXN and the mFXN-HIS complex compared

Chain of UniProt Q9D7P6 (Q9D7P6 36-168, chain 1 of 3): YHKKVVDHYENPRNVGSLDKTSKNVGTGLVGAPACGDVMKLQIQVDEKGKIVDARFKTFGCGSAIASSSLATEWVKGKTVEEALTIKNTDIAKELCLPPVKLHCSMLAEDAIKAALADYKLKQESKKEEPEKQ
Chain of UniProt Q9D7P6 (Q9Z1J3 18-459, chain 2 of 3, further chain): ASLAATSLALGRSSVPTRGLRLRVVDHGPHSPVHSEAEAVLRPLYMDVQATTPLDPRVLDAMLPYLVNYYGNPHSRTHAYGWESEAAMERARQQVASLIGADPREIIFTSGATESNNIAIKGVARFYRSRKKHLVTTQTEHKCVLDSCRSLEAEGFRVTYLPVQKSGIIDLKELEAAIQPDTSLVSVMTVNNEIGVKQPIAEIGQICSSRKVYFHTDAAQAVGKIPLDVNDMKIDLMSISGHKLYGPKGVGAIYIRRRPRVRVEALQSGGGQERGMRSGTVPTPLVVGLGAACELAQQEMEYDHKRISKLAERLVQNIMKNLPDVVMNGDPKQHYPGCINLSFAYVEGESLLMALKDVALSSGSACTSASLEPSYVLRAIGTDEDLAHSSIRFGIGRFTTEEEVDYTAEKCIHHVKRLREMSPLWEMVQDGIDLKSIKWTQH
Chain of UniProt Q9D7P6 (Q8K215 whole entry, chain 3 of 3, further chain): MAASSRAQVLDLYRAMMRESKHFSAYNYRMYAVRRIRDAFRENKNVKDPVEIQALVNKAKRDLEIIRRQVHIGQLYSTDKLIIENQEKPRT

With mFXN-HIS (natural protein) the stoichiometry N was 2.
